Test results taken from US8940501.

Target: receptor of interferon alpha (printed only as 'receptor'), on Daudi cells
Assay: cell-based or functional assay

## commercially available IFNα (from UniProt P01563 24-188) (ligand)
  IC50 (pg/mL), inhibition of Daudi cell proliferation: 15.5 pg/mL
